Test results taken from PMC10173203 (Science translational medicine, 2021).

Molecular target: HA of A/Michigan/45/2015 H1N1 virus (Influenza A virus A/Michigan/45/2015 …, UniProt A0A1J0CXU0, strain)
Assay: ELISA

B1: 047–09 4B06 mAb (human IgG1) (antibody, V domains shown)
VH: EVQLLESGGGLVQPGGSLRLSCAASGFIFGHFAMTWVRQAPGKGLEWLSAISGGGLNTYYAESVKGRFTMSRDNSKNTLYLQMGSLRAEDAAVYYCARFDSSGYNYVRGMVVWGQGTAV
VL: DIQMTQSPSSLSVSIGDRITITCQASQDIKNYLGWYQHKPGKAPKLLIYHVSNLEAGVPSRFSGSGSGTDFTFTISSLQPEDIGTYYCHQCYNLPYTFGQGTKVEIK
B1: binds.
